Source: patent publication EP0853661B1 (CAMBRIDGE ANTIBODY TECHNOLOGY LIMITED, dated 2000)
Residue numbers refer to the chain shown, from its start.

T1: human TGFβ2 (transforming growth factor beta 2) (human, UniProt P61812 303-414)
T1 sequence (looked up): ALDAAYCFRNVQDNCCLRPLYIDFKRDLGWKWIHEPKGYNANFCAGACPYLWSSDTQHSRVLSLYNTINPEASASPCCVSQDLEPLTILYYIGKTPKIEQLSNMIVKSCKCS

T2: TGFβ3 (transforming growth factor beta 3) (UniProt P10600 301-412)
T2 construct: mature; also called TGFbeta3
T2 sequence (looked up): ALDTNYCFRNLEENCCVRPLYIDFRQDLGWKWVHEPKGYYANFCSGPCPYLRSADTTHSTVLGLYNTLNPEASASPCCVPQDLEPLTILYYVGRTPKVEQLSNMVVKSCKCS

B1: 14F12 scFv (scFv)
chain: EIQLVESGGGVVQPGRSLRLSCAASGFTFSSYAMHWVRQAPAKGLEWVAVISYDGSNKYYADSVKGRFTISRDNSKNTLYLQMNSLRAEDTAVYYCARAGLETTWGQGTLVTVSSSGGGGGSGGGGSGGGGSSSELTQDPAVSVALGQTVRITCQGDSLRNYYANWYQQKPGQAPVLVIYGKNNRPSGIPDRFSGSSSGNTASLTITGARAEDEGVYYCNSRDSSGAVFGGGTKLTVLG
B2: 6B1 scFv (scFv)
chain: EVQLVESGGGVVQPGRSLRLSCAASGFTFSSYGMHWVRQAPGKGLEWVAVIWYDGSNKYYADSVKGRFTISRDNSKNTLYLQMDSLRAEDTAVYYCGRTLESSLWGQGTLVTVSSGGGGSGGGGSGGGGSSSELTQDPAVSVALGQTVRITCQGDSLRSYYASWYQQKPGQAPVLVIYGKNNRPSGIPDRFSGSSSGNTASLTITGAQAEDEADYYCNSRDSSSTHRGVFGGGTKLTVLG
B3: 6B1 IgG4 (antibody, V domains shown)
VH: EVQLVESGGGVVQPGRSLRLSCAASGFTFSSYGMHWVRQAPGKGLEWVAVIWYDGSNKYYADSVKGRFTISRDNSKNTLYLQMDSLRAEDTAVYYCGRTLESSLWGQGTLVTVSS
VL: SSELTQDPAVSVALGQTVRITCQGDSLRSYYASWYQQKPGQAPVLVIYGKNNRPSGIPDRFSGSSSGNTASLTITGAQAEDEADYYCNSRDSSSTHRGVFGGGTKLTVLG
B4: 6H1 IgG4 (antibody, V domains shown)
VH: B3 VH
VL: DVVMTQSPSSLSASVGDRVTITCRASQGISNYLAWYQQKPGKAPKLLIYKASTLESGVPSRFSGSGSGTEFTLTISSLQPEDFATYYCQQSYSTPRTFGQGTKVDIKR
B5: 6A5 IgG4 (antibody, V domains shown)
VH: B3 VH
VL: SSELTQDPAVSVALGQTVRITCQGDSLRSYYASWYQQKPGQAPVLVIYGKNNRPSGIPDRFAGSNSGNTASLTITGAQAEDEADYYCSSRDSSGNHVVFGGGTKLTVLG
B6: 27C1/10A6 IgG4 (antibody, V domains shown)
VH: QVQLVESGGGVVQPGRSLRLSCAASGLTFSSYDMHWVRQPPAKGLEWVAVISYDGSSKYYADSVKGRFTISRDNSKNTLYLQMNSLRAEDTAVYYCARTGEYSGYDTSGVELWGQGTTVTVSS
VL: B3 VL with S1H, S2V, E3I, R28K, K50E, N52S, S94G, R97L, G98E
B7: 6A5 scFv (scFv)
chain: EVQLVESGGGVVQPGRSLRLSCAASGFTFSSYGMHWVRQAPGKGLEWVAVIWYDGSNKYYADSVKGRFTISRDNSKNTLYLQMDSLRAEDTAVYYCGRTLESSLWGQGTLVTVSSGGGGSGGGGSGGGGSSSELTQDPAVSVALGQTVRITCQGDSLRSYYASWYQQKPGQAPVLVIYGKNNRPSGIPDRFAGSNSGNTASLTITGAQAEDEADYYCSSRDSSGNHVVFGGGTKLTVLG
B8: 6H1 scFv (scFv)
chain: EVQLVESGGGVVQPGRSLRLSCAASGFTFSSYGMHWVRQAPGKGLEWVAVIWYDGSNKYYADSVKGRFTISRDNSKNTLYLQMDSLRAEDTAVYYCGRTLESSLWGQGTLVTVSSGGGGSGGGGSGGGGSDVVMTQSPSSLSASVGDRVTITCRASQGISNYLAWYQQKPGKAPKLLIYKASTLESGVPSRFSGSGSGTEFTLTISSLQPEDFATYYCQQSYSTPRTFGQGTKVDIKR
B9: 10A6 scFv (scFv)
chain: QVQLVESGGGVVQPGRSLRLSCAASGFTFSSYGMHWVRQAPGKGLEWVAVISYDGSNKYYADSVKGRFTISRDNSKNTLYLQMNSLRAEDTAVYYCAKTGEYSGYDSSGVDVWGKGTTVTVSSGGGGSGGGGSGGGGSHVILTQDPAVSVALGQTVRITCQGDSLKSYYASWYQQKPGQAPVLVIYGENSRPSGIPDRFSGSSSGNTASLTITGAQAEDEADYYCNSRDSSGTHLEVFGGGTKLTVLG

Experiments:
[1] = molecular target: T1, human TGFβ2 (transforming growth factor …); experiment: cell-based or functional assay
[2] = molecular target: T1, human TGFβ2 (transforming growth factor …); experiment: BIACore, scFv (35µl) injected over amine-coupled antigen on CM5 chip; chip as printed
[3] = molecular target: T3, human TGFβ1 (transforming growth factor beta 1) (human, UniProt P01137 279-390); experiment: as above
T3 construct: mature; Active dimer; also called TGFbeta1
T3 sequence (P01137 279-390 limits assumed): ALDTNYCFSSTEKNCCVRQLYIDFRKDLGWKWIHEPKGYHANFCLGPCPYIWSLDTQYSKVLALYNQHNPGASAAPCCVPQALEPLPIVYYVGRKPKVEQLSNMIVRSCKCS

[4] = molecular target: T2, TGFβ3 (transforming growth factor beta …); experiment: BIAcore 2000, ratio of dissociation constants
[5] = molecular target: T2, TGFβ3 (transforming growth factor beta …); experiment: A549 cell radioreceptor assay, inhibition of 125I-TGFβ3 binding to receptors
[6] = molecular target: T2, TGFβ3 (transforming growth factor beta …); experiment: cell-based or functional assay
[7] = molecular target: T2, TGFβ3 (transforming growth factor beta …); experiment: BIAcore 2000, antigen immobilised, antibody as analyte
[8] = molecular target: T2, TGFβ3 (transforming growth factor beta …); experiment: A549 cell radioreceptor assay
[9] = molecular target: T2, TGFβ3 (transforming growth factor beta …); experiment: BIAcore 2000, antigen immobilised, antibody as analyte; koff divided by kon
[10] = molecular target: T1, human TGFβ2 (transforming growth factor …); experiment: cell-based or functional assay; remark: listed apart in the source
[11] = molecular target: T2, TGFβ3 (transforming growth factor beta …); experiment: cell-based or functional assay; remark: listed apart in the source
[12] = molecular target: T1, human TGFβ2 (transforming growth factor …); experiment: BIACore, IgG4 over TGFβ2-coated chip
[13] = molecular target: T3, human TGFβ1 (transforming growth factor …); experiment: specificity ELISA, TGFβ isoforms coated at 0.2µg/ml

Row | Binder | I.C.50 in TF1 assay (neutralisation of the TGFβ2 inhibition of IL-5 induced TF1 cell proliferation) [1] [nM] | total increase in resonance units (RU) [2] [RU] | total increase in resonance units (RU) [3] [RU] | also measured
1 | B1 | 90 | 115 | 616 | 
2 | B2 | 15 |  |  | 
3 | B3 | 11 |  |  | cross-reactivity with TGFβ3 (ratio of dissociation constants for TGFβ3 and TGFβ2) [4]: 9%; IC50 [5]: 4 nM; TF1 cell proliferation assay IC50 (nM IgG) [6]: 11 nM; koff [7]: 0.00045 s⁻¹; kon [7]: 45000 M⁻¹ s⁻¹; cross-reactivity with TGFβ3 relative to TGFβ2 [8]: < 2%; Kd [9]: 10 nM; IC50 in the TF1 neutralisation assay (6B1 IgG4 from cell line 5D8-2A6) [10]: 1.8 nM
4 | B4 | 100 |  |  | IC50 in the TF1 neutralisation assay (6H1 IgG4 from a CHO cell line) [10]: 15 nM; IC50 of neutralisation of TGFβ2 in the TF1 cell proliferation assay [10]: 12 nM; IC50 of neutralisation of TGFβ3 in the TF1 cell proliferation assay [11]: ~20 nM
5 | B5 | 150 |  |  | 
6 | B6 |  |  |  | fold higher dissociation constant for TGFβ2 compared to TGFβ1 [12]: ≥ 10 fold
7 | B7 | 8 | 71 | 480 | 
8 | B8 | 1.5 | 77 | 686 | 
9 | B9 |  |  |  | fold ELISA signal on TGFβ1 against the signal on TGFβ2 and TGFβ3 [13]: ≥ 5 fold
